Results published in the RNAGym collection of RNA variant scans (doi:10.1073/pnas.2313332121).

B1: TPR t1 (parent)
chain: GACCAAUCUGCCCUCAGAGCUCGAGAACAUCUUCGGAUGCAGAGGAGGCAGGCUUCGGUGGCGCGAUAGCGCCAACGUCCUCAACCUCCAAUGCAUCCCACCACAUGAUGAUGCCUGAAGAGCCUUGGUUUUUUG

Variants of: B1
Experiment: polymerase ribozyme fitness, log enrichment relative to wild type (log ratio); higher = more active; in vitro selection for triplet polymerase activity
Procedure, shortened: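 Fitness is a logarithmic measure of how a genotype enriched relative to the wild type, with replicate averages weighted by inverse variance. The logarithm uses base 2, and enrichment came from Illumina sequencing of input and output libraries. Those libraries were PCR-built, transcribed mutants of each subunit of a heterodimeric triplet polymerase ribozyme, passed through one triplicate in vitro selection round that included frozen incubation at −7 °C, gel excision of extended constructs and streptavidin-bead capture. Genotypes were kept only if they had ≥10 input reads and ≥1 read per output.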

Variant	polymerase ribozyme fitness (log ratio)
C70U A84G	-1.86
C70U C85G	-2.33
C70U C82G G117U	-3.92
C70A C86U	-1.81
C70A U78C	-1.85
C70U A74U	-0.47
C70U A74G	-1.83
C70G U78C G113C	-5.1
C70A C99U U109A	-6.83
C70A G77A A90G	-1.37
C70U A91U	-3.34
C70A G120U	-1.5
C70G U81A G117U G120A	-5.65
C70G C124A	-1.21
C70A U106C C114A	-4.64
C70G G120A	-1.34
C70G G120U	-2.36
C70U C72G U92A A108U U112C G113A A121G	-6.12
C70G G113A	-3.02
C70G G113C	-4
C70G C80U	-2.51
C70A C82U A84C U87C U116A C123G U131C	-1.57
C70G C94G C123A	-3.58
C70U C86G	-1.54

Variant	polymerase ribozyme fitness (log ratio)
C70U C86U	-1.4
C70U C86A	-1.13
C70G A83G U112C	-3.8
C70A U87A	-1.22
C70G A100U C115A G120U	-2.99
C70U C76U G113C C123A	-5.89
C70G A105G	-5.16
C70G U81A	-5.64
C70G U81C	-3.83
C70U C72U	0.27
C70A A105G	-4.48
C70U C94G A95G	-1.78
C70G C97U	-2.56
C70A C124G U125A	0.0006
C70G C88G	-5.57
C70G U78C G113A A121G	-2.79
C70A C73U C99U G107U U109C G117U	-6.35
C70G C98U G117A	-5.6
C70G C123U	-0.882
C70U C88G	-1.63
C70U C88A	-0.884
C70A U81A	-2.88
C70A C72U U92G G120U	-6
G69U U112G	0.676

Variant	polymerase ribozyme fitness (log ratio)
C70G C82A G113C	-6.03
C70U C86U G117A	-2.35
C70U C85A C94U U112C	-0.466
C70G C123G U131C	0.0447
C70G C80A C104G C124G	-6.03
C70U A91U G113A	-2.99
C70U C97A C102G U109G G117A	-6.26
C70U A118U	0.0135
C70A C72G	-4.19
C70G U116A	-4.95
C70A U106C	-2.99
C70U C89A	-2.09
C70U C89U	-1.12
C70A C123U	-0.0495
C70A C123G	-0.534
C70G U112G U125C	-3.92
C70G	-2.49
C70A	-1.51
C70U	-0.414
C70U C85A C102A	-5.05
C70G U133G	-3.44
C70G G110U	-4.62
G69U U116G	-2.69
G69U U116C	0.102

Variant	polymerase ribozyme fitness (log ratio)
C70G C104G G110A	-6.86
C70G C102A	-5.59
C70G C79U	-3.08
C70A C85A	-3.25
C70A C85U	-2.32
C70G A100C C123A	-4.49
C70G U78G A119G	-1.17
C70G A121G	-0.69
C70G A121U	-0.929
C70G U92C C123A	-5.06
C70A U92A A95U A111C G113C	-6.14
C70A G77C	-2.99
C70U A95U C124A	-2.31
C70U A111C	-0.279
C70U A111U	-4.03
C70A C72U C101A	-2.45
C70A A75G	-2.89
C70G A74U	-4.98
C70U C88G U132C	-1.25
C70G A100C	-4.69
C70U A108G	-2.04
C70G U78C	-2.66
C70U C82U G93U	-1.52
C70A U126C	-2.02

Variant	polymerase ribozyme fitness (log ratio)
C70A U126G	-3.42
C70U C82G U106C	-1.36
C70A G77A C97A A121U	-5.66
C70A C102A U112C	-2.45
C70A U131A	-1.34
C70A A74U	-3.39
C70U C72G A75U	-1.29
C70A C114U U125A	-5.48
C70U C79G C114A	-6.1
C70G C104A	-4.9
C70A C101G	-4.14
C70G A95U C114A	-6.28
C70A G135U	-1.99
C70G U129A	-4.27
C70A C101U U106C	-1.6
C70U A100C	-1.61
C70U A100U	-1.33
C70G A103G	-4.93
G69U U112G U125A	1.09
C70G A84U C85U C104U	-4.81
C70G U109G	-6.4
C70G U78C U92C	-5.65
C70A A108U C124A	-5.58
C70U C80A A90U C123A	-6.41

Variant	polymerase ribozyme fitness (log ratio)
C70U A95C U109A	-7.47
C70G A90C	-4.87
G69U U131A	-0.175
G69U U129A	-0.546
C70G A111G	-3.21
C70G G122A	-3.06
C70G G122U	-2.27
C70A U116A G120C	-1.85
C70A C114G	-4.93
C70A C114U	-3.91
C70A C89A C104U A111U G113A G127C	-6.35
C70G C85A G93A C99G G110U	-6.29
C70A C94U	-1.23
C70A C80G U87A C88U C94U C123G	-6.08
C70U C73G A105U	-4.61
C70G U112G	-2.86
C70G U112A	-1.98
C70U C94U U112A	0.254
C70G U78A G93C	-2.76
C70U C82U	-1.59
C70U C72A C79U G110A	-2.38
C70U C97U	-0.226
C70G C85U	-3.79
C70U C76G G77A G113C	-3.85

Variant	polymerase ribozyme fitness (log ratio)
C70G A108G	-3.92
C70G C82G C124A U131G	-3.38
C70G C82A	-2.48
C70G C82U	-3.14
C70G A111U G117U A121U	-6.12
C70A A83U	-2.44
C70U C89A A90G U92A	-6.08
C70U C85U A91C	-3.52
C70G G93U	-3.28
C70U C82G C104A A111U C115U G127U	-6.19
C70U C94U	-0.0504
C70G C124A G127U U132C	-0.524
C70G G77A	-1.74
C70G A118U	-1.64
C70A C86A G113A C123G	-2.59
C70A A95G	-1.6
C70A C85U C88U G122U C124G	-2.37
C70A G117A	-3.29
C70G A105G G113U U129G	-6.51
C70A C73U	-1.81
C70U A121G	-0.18
C70U A121U	0.918
C70A A111U A121U	-5.08
